This note sets out measurements from PMC10897196, “Structure–activity characteristics of phenylalanine analogs selectively transported by L-type amino acid transporter 1 (LAT1)” (Scientific Reports, 2024).

Series [1] in a line: Plasma concentration-time profile in normal mice after intravenous administration. It is filed as in vivo. Conditions: C57BL/6J mice, i.v., 15, 30, 60, 120 min; 2-F-Tyr 15.6 mg/kg, bicyclic-Phe 15 mg/kg. How it is done: The blood samples were collected at 15, 30, 60, and 120 min post-administration into lithium heparin-coated tubes (BD, New Jersey, USA) and then centrifuged at 1,500 ×g for 10 min at 23 °C. The resulting plasma was stored at −80 °C pending analysis by HPLC.
(§1) HPLC analyses were conducted as previously described. In brief, tumors and small intestines were homogenized in ice-cold PBS (3 times the tissue weight, v/w). The homogenates were then centrifuged at 15,000 ×g for 40 min at 4 °C. A 10 μL aliquot of the tissue supernatant or plasma was mixed with 190 μL of acetonitrile (MeCN) to precipitate proteins. This mixture was subsequently centrifuged at 15,000 ×g for 30 min at 4 °C. The resulting supernatant (100 μL) was dried, and the residue was reconstituted in 20 μL of 400 mM sodium borate (pH 8.0). Finally, 5 μL of 40 mM 4-fluoro-7-nitro-2,1,3-benzoxadiazole (NBD-F) in MeCN was added for fluorescence derivatization. HPLC analysis was carried out using a NANOSPACE SI-2 HPLC system (Shiseido, Tokyo, Japan) equipped with a fluorescence detector. […] The mobile phase consisted of MeCN, water, and trifluoroacetic acid (TFA) in a 27.5:72.5:0.05 (v/v/v) ratio, delivered at a flow rate of 200 μL/min.

Series [2] is described as follows: Tissue accumulation (plasma, tumor, small intestine) in B16-F10 tumor-bearing mice, HPLC. It is filed as in vivo. How it is done:
Female C57BL/6J mice were subcutaneously injected with 2 × 10^6 B16-F10 cells. The cells were prepared in a mixture containing a 1:1 volume ratio of phosphate-buffered saline (PBS) and Matrigel (Corning, New York, USA), with the total injection volume being 200 μL, administered into the dorsal flank. Tumor growth was measured bi-daily using calipers until tumors reached a size of approximately 300 ~ 500 mm^3, at which point they were deemed palpable. […] Blood samples were collected at 30 and 60 min post-administration. Then both the tumors and small intestines were excised and weighed for subsequent analysis by HPLC.
as §1

Substrate in series [3]: N[C@@H](Cc1ccccc1)C(=O)O
The series can be described thus: Efflux of pre-loaded L-[14C]alanine from HEK293-hLAT2 cells induced by extracellular compounds. Particulars: other: LAT2, L-[14C]alanine efflux, 1 min; mean ± S.E.M., n = 3; 37.0 °C. The class given is cell-based, human. The procedure:
(§2) We evaluated the efflux of pre-loaded L-[^14C]leucine from LAT1 and pre-loaded L-[^14C]alanine from LAT2 induced by extracellularly applied compounds.
(§3) Efflux experiments were performed as described previously. Cells cultured 48 h were pre-loaded with 5 μM L-[^14C]leucine or L-[^14C]alanine for 10 min at 37 °C. The cells were then washed, and the efflux was induced by incubating cells for 1 min in either the absence or presence of non-radiolabeled test compounds at indicated concentrations. The efflux time of 1 min fell within the linear range of time-dependent substrate efflux mediated by LAT1 and LAT2 (Supplementary Fig. S2). Following incubation, the medium was collected and radioactivity was measured in both the medium and the cells. Efflux was quantified as the percentage of radioactivity released into the medium, calculated using the formula: radioactivity of medium/(radioactivity of medium + radioactivity of cells) × 100%.
(§4) The kinetic parameters for the efflux of L-[^14C]leucine or L-[^14C]alanine induced by various concentrations of extracellularly-applied test compounds were analyzed. The baseline efflux values—those obtained in the absence of test compounds—were subtracted from the values measured in the presence of the compounds. The resultant data were fitted to Michaelis–Menten kinetics to determine the Km and Vmax by nonlinear regression analysis using “enzyme kinetics-velocity as a function of substrate” module within GraphPad Prism software.

Substrate in series [4]: N[C@@H](Cc1ccccc1I)C(=O)O
Described as above. It is filed as cell-based, human. Conditions: other: LAT2, L-[14C]alanine efflux, 1 min; mean ± S.E.M., n = 3; 37.0 °C. The procedure:
as §2, §3, §4

Substrate in series [5]: N[C@]1(C(=O)O)CCc2ccccc2C1
The series is described as above. The class given is cell-based, human. Particulars: other: LAT2, L-[14C]alanine efflux, 1 min; mean ± S.E.M., n = 3; 37.0 °C. The procedure: as §2, §3, §4

Substrate in series [6]: C[C@](N)(Cc1ccccc1)C(=O)O
The description is as above. Particulars: other: LAT2, L-[14C]alanine efflux, 1 min; mean ± S.E.M., n = 3; 37.0 °C. The class given is cell-based, human. How it is done: as §2, §3, §4

Where “and” joins values, the source holds several entries; their conditions need not be identical. Identical values can stand only once.

In the case of `N[C@@H](Cc1ccc(O)cc1F)C(=O)O` [2-F-Tyr, 2-Fluoro-L-tyrosine, reference compound], the “Plasma concentration (in words)” value in series [1] was “time-dependent decreases in plasma concentration”. Also, the “Small intestine-to-plasma ratio (I/P) (in words)” value in series [2] (30 and 60 min after i.v., equimolar doses) is reported as “considerably higher for 2-F-Tyr than for bicyclic-Phe”. In series [2] (i.v., normalized to tissue weight / plasma volume, 2-F-Tyr at 60 min), the “Concentration in tumor compared with plasma” value is listed as “higher in the tumor than in plasma”.

B1: human LAT2 (Homo sapiens) (protein)
chain: MEEGARHRNNTEKKHPGGGESDASPEAGSGGGGVALKKEIGLVSACGIIVGNIIGSGIFVSPKGVLENAGSVGLALIVWIVTGFITVVGALCYAELGVTIPKSGGDYSYVKDIFGGLAGFLRLWIAVLVIYPTNQAVIALTFSNYVLQPLFPTCFPPESGLRLLAAICLLLLTWVNCSSVRWATRVQDIFTAGKLLALALIIIMGIVQICKGEYFWLEPKNAFENFQEPDIGLVALAFLQGSFAYGGWNFLNYVTEELVDPYKNLPRAIFISIPLVTFVYVFANVAYVTAMSPQELLASNAVAVTFGEKLLGVMAWIMPISVALSTFGGVNGSLFTSSRLFFAGAREGHLPSVLAMIHVKRCTPIPALLFTCISTLLMLVTSDMYTLINYVGFINYLFYGVTVAGQIVLRWKKPDIPRPIKINLLFPIIYLLFWAFLLVFSLWSEPVVCGIGLAIMLTGVPVYFLGVYWQHKPKCFSDFIELLTLVSQKMCVVVYPEVERGSGTEEANEDMEEQQQPMYQPTPTKDKDVAGQPQP
notes: expressed in transfected cells
By Km is commonly meant the concentration of substrate that gives half-maximal velocity. In the case of B1, the Km in series [3] is 25.21 ± 2.43 µM; in series [4], 35.34 ± 1.95 µM; in series [5] it was 30 µM and 29.96 ± 4.00 µM; in series [6], 246.49 ± 23.00 µM.
